Where a chain is given by its changes, count along the chain named. In names and notes the source's numbering stands.

By Kd is commonly meant the free concentration of one partner at which half of the binding sites on the other are occupied at equilibrium, for simple one-to-one binding. As a reminder, the koff is a measure of how fast the partners let go of each other. Usually kon stands for the second-order rate constant of association.

The target of experiment [1] is T1, human KLK7 (human, UniProt P49862 30-253).
T1 construct: Antigen injected in SPR; also called hu KLK7; huKLK7
Kind of experiment: SPR BIAcore 8K, antibody on protein A chip, 37 C. The method, then:
The binding affinity of the humanized antibodies was determined by BIAcore™ 8K SPR system. For kinetics measurements, antibodies were captured on research grade protein A chip (GE Healthcare) to achieve approximately 300 RU. Ten-fold serial dilutions of human KLK7 were injected in HBS-P buffer at 37° C. with a flow rate of 100 μL/min. Association rates (ka) and dissociation rates (kd) were calculated using a 1:1 Langmuir binding model (BIAcore Insight Evaluation Software version 2.0). The equilibrium dissociation constant (KD) was calculated as the ratio kd/ka.
On the technique in general: SPR reads the build-up and loss of mass on a sensor chip optically.

Experiment [2] concerns the target T2, human KLK5 (human, UniProt Q9Y337 67-293).
T2 sequence: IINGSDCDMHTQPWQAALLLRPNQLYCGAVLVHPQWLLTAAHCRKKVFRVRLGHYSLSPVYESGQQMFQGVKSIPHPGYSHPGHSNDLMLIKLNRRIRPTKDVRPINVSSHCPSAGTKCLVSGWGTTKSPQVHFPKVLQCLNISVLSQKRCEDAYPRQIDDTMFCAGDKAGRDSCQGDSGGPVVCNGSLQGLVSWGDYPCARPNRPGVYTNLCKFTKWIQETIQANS
Kind of experiment: cell-based or functional assay.

Experiment [3] addresses human KLK7 (SEQ ID NO: 4 plus a C-terminal FLAG tag) (human, UniProt P49862 30-253). Briefly: cell-based or functional assay.
The target of experiment [4] is T3, cynomolgus monkey KLK5 (cynomolgus monkey, UniProt Q9Y337 67-293 (human entry)).
T3 chain: T2 sequence with M9E, R21G, A29G, V71I, R98H, P99S, K128R, K169E, R202K
Briefly: cell-based or functional assay.

In experiment [5] the target is cyano KLK7 (SEQ ID NO: 6 plus a C-terminal FLAG tag) (cynomolgus monkey, UniProt P49862 30-253 (human entry)). Kind of experiment: cell-based or functional assay.
Experiment [6] has as its target T2, human KLK5. Briefly: SPR, one-armed monovalent antibody.
In experiment [7] the target is T3, cynomolgus monkey KLK5. Kind of experiment: SPR, one-armed monovalent antibody.
The target in experiment [8] is T1, human KLK7. Kind of experiment: kinetics of bispecific antibody, method not restated (SPR implied).
In another experiment the target is T4, cynomolgus monkey KLK7 (cynomolgus monkey, UniProt P49862 30-253 (human entry)).
T4 construct: Antigen injected in SPR; also called Cy KLK7; cyno KLK7
The description is as above.

Experiment [9] has as its target T3, cynomolgus monkey KLK5. The description is as above.
The target in experiment [10] is T2, human KLK5. The description is as above.

T4 sequence (P49862 other isoform, or with tags, fused parts or gaps): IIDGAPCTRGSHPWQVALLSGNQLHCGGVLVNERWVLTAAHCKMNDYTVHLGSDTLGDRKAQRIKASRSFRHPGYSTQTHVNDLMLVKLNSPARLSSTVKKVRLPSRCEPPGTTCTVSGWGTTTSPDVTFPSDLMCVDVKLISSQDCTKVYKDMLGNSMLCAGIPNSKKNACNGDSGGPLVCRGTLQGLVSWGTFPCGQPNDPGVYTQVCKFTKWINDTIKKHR
Sequence of cyano KLK7 (SEQ ID NO: 6 plus a C-terminal FLAG tag) (P49862 other isoform, or with tags, fused parts or gaps): as above
Sequence of human KLK7 (SEQ ID NO: 4 plus a C-terminal FLAG tag) (P49862 30-253): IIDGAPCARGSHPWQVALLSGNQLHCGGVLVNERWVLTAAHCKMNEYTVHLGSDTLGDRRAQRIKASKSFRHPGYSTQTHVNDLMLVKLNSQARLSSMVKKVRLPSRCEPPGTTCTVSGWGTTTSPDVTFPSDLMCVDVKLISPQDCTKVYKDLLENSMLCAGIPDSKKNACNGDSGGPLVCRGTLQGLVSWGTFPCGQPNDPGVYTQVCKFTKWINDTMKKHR
T1 sequence (P49862 30-253): as above

B1: chimeric rb.14H11c-hIgG1 (antibody, V domains shown)
VH: QSLEESGGDLVKPGASLTLTCTASGFSFSSSYYMSWVRQAPGKGLEWIASIYAGSSGAPYYAGWAKGRFTISKTSSTAVTLQMSSLTAADTATYFCAREGFAETGGYGYAAYFNLWGPGTLVTVSS
VL: AIEMTQSPPSLSASVGETVRIRCLASEDIASSVSWYQQKPGKPPTLLIYGASNLESGVPPRFTGSGSGTDYTLTIGGVQAEDAATYYCLGGYSYSSTGTAFGAGTKVEIK
notes: Rabbit variable domains (14H11 with C35a to S in VH) on human IgG1; also called Chimeric 14H11c
On to B1, for which, in the experiment with human KLK7 [1], the Kd is less than 1 pM, the off-rate (koff) is less than 1e-06 s⁻¹ and the kon is 2.16e+07 M⁻¹ s⁻¹.

B2: hu.14H11c.L2H11-hIgG1 (antibody, V domains shown)
VH: EQQLVESGGGLIQPGGSLRLSCAASGFSFSSSYYMSWVRQAPGKGLEWVSSIYAGSSGAPYYAGWAKGRFTISRDNSKNTLYLQMNSLRAEDTAVYYCAREGFAETGGYGYAAYFNLWGPGTLVTVSS
VL: DIQMTQSPSSLSASVGDRVTITCLASEDIASSVSWYQQKPGKAPKLLIYGASNLESGVPSRFSGSGSGTDYTLTISSLQPEDFATYYCLGGYSYSSTGTAFGGGTKVEIK
notes: Humanized anti-KLK7 antibody, human IgG1
B2: in the experiment with human KLK5 [2], the “IC50, KLK5 direct functional assay (Boc-Val-Pro-Arg-AMC), bivalency corrected” value (shortened to “IC50, KLK5 direct functional assay”) was more than 10 nM. The “IC50, KLK7 direct functional assay (Mca-RPKPVE-Nval-WRK(Dnp)), bivalency corrected” value (from here on “IC50, KLK7 direct functional assay”) in experiment [3] was found to be 0.29 nM. Besides, in the experiment with human KLK7 [1], the Kd was found to be 0.356 pM, the off-rate (koff) was 1.22e-05 s⁻¹ and the kon came to 3.43e+07 M⁻¹ s⁻¹. The “IC50, KLK5 direct functional assay” value with cynomolgus monkey KLK5 [4] was more than 10 nM. Also, in [5], the “IC50, KLK7 direct functional assay” value came to 0.29 nM.

B3: One-armed hu.14H11c.L2H11-hIgG1 knob-in-hole (antibody)
heavy: not shown
VL: B2 VL with Q38K
chain: DKTHTCPPCPAPELLGGPSVFLFPPKPKDTLMISRTPEVTCVVVDVSHEDPEVKFNWYVDGVEVHNAKTKPREEQYGSTYRVVSVLTVLHQDWLNGKEYKCKVSNKALPAPIEKTISKAKGQPREPQVYTLPPSREEMTKNQVSLSCAVKGFYPSDIAVEWESNGQPENNYKTTPPVLDSDGSFFLVSKLTVDKSRWQQGNVFSCSVMHEALHNHYTQKSLSLSPGK
notes: Monovalent one-armed format
In the experiment with human KLK7 [1], B3 registered a Kd of 0.894 pM, a koff of 2.52e-05 s⁻¹ and a kon of 2.82e+07 M⁻¹ s⁻¹.

B4: hu10C5VY (antibody, V domains shown)
VH: EVQLVESGGGLVQPGGSLRLSCAASGFSLSSYGVTWVRQAPGKGLEWIGYITSVYGVSYYASWAKSRSTISRDTSKNTVYLQMGSLRAEDMAVYYCARENPDYGYAYDAWGQGTTVTVSS
VL: AIRMTQSPSSFSASTGDRVTITCQASESISNELSWYQQKPGKAPKLLIYYASTLASGVPSRFSGSGSGTDFTLTISSLQPEDFATYYCAQGYGSSGVENVFGGGTKVEIK
For B4, the “IC50, KLK5 direct functional assay” value worked out at 0.46 nM in the experiment with human KLK5 [2] and 0.56 nM with cynomolgus monkey KLK5 [4]. Further, the “IC50, KLK7 direct functional assay” value in [3] and in experiment [5] was more than 10 nM each time.

B5: OA.hu.10C5.N53V.S95F (antibody, V domains shown)
VH: B4 VH with Q39K
VL: B4 VL with Q38E, Y92F, S95F
notes: One-armed (OA) monovalent anti-KLK5 antibody with a human IgG1 Fc, with Q38E/Q39K; constant regions and dummy Fc chain not specified
In the experiment with human KLK5 [6], B5 gave a Kd of 2.59 pM, a dissociation rate constant (koff) of 1.51e-05 s⁻¹ and an on-rate constant (kon) of 5.82e+06 M⁻¹ s⁻¹. In the experiment with cynomolgus monkey KLK5 [7], this molecule yielded an equilibrium dissociation constant (Kd) of 7.44 pM, a koff of 0.0001 s⁻¹ and a kon of 1.35e+07 M⁻¹ s⁻¹.

B6: OA.hu.10C5.N53V.S34K (antibody, V domains shown)
VH: B4 VH with Q39K
VL: B4 VL with S34K, Q38E, Y92F
notes: as for B5
In the experiment with human KLK5 [6], B6 gave a Kd of 2.89 pM, an off-rate constant (koff) of 9.88e-06 s⁻¹ and a kon of 3.42e+06 M⁻¹ s⁻¹. Further, in the experiment with cynomolgus monkey KLK5 [7], the dissociation constant Kd is 16.2 pM, the off-rate (koff) is 8.88e-05 s⁻¹ and the kon came to 5.48e+06 M⁻¹ s⁻¹.

B7: OA.hu.10C5.N53V.S34K.S95F (antibody, V domains shown)
VH: B4 VH with Q39K
VL: B4 VL with S34K, Q38E, Y92F, S95F
notes: as for B5
In the experiment with human KLK5 [6], B7 returned a Kd of less than 0.235 pM, a koff of less than 1e-06 s⁻¹ and an association rate constant (kon) of 4.25e+06 M⁻¹ s⁻¹. In the experiment with cynomolgus monkey KLK5 [7], this molecule gave a Kd of 3.03 pM, a koff of 2.86e-05 s⁻¹ and a kon of 9.41e+06 M⁻¹ s⁻¹.

B8: OA.hu.10C5.N53V.S34K.F92Y.S95F (antibody, V domains shown)
VH: B4 VH with Q39K
VL: B4 VL with S34K, Q38E, S95F
notes: as for B5
In the experiment with human KLK5 [6], B8 showed a dissociation constant Kd of 0.367 pM, an off-rate (koff) of 1.88e-06 s⁻¹ and an association rate constant (kon) of 5.13e+06 M⁻¹ s⁻¹. In the experiment with cynomolgus monkey KLK5 [7], the Kd amounted to 2.65 pM, the off-rate constant (koff) stood at 2.81e-05 s⁻¹ and the on-rate constant (kon) was 1.06e+07 M⁻¹ s⁻¹.

B9: OA.hu.10C5.N53V.S34K.F92Y (antibody, V domains shown)
VH: B4 VH with Q39K
VL: B4 VL with S34K, Q38E
notes: as for B5
In the experiment with human KLK5 [6], B9 gave a Kd of less than 0.334 pM, a dissociation rate constant (koff) of less than 1e-06 s⁻¹ and an on-rate constant (kon) of 3e+06 M⁻¹ s⁻¹. In the experiment with cynomolgus monkey KLK5 [7], this molecule had a dissociation constant Kd of 5.22 pM, a koff of 3.08e-05 s⁻¹ and a kon of 5.9e+06 M⁻¹ s⁻¹.

B10: hu.10C5VY.hu14H11c.L2H11 WT (bispecific antibody, human IgG1, kappa, N297G)
heavy 1: not shown
light 1: DIQMTQSPSSLSASVGDRVTITCLASEDIASSVSWYQKKPGKAPKLLIYGASNLESGVPSRFSGSGSGTDYTLTISSLQPEDFATYYCLGGYSYSSTGTAFGGGTKVEIKRTVAAPSVFIFPPSDEQLKSGTASVECLLNNFYPREAKVQWKVDNALQSGNSQESVTEQDSKDSTYSLSSTLTLSKADYEKHKVYACEVTHQGLSSPVTKSFNRGEC
heavy 2: EVQLVESGGGLVQPGGSLRLSCAASGFSLSSYGVTWVRKAPGKGLEWIGYITSVYGVSYYASWAKSRSTISRDTSKNTVYLQMGSLRAEDMAVYYCARENPDYGYAYDAWGQGTTVTVSSASTKGPSVFPLAPSSKSTSGGTAALGCLVKDYFPEPVTVSWNSGALTSGVHTFPAVLQSSGLYSLESVVTVPSSSLGTQTYICNVNHKPSNTKVDKKVEPKSCDKTHTCPPCPAPELLGGPSVFLFPPKPKDTLMISRTPEVTCVVVDVSHEDPEVKFNWYVDGVEVHNAKTKPREEQYGSTYRVVSVLTVLHQDWLNGKEYKCKVSNKALPAPIEKTISKAKGQPREPQVYTLPPSREEMTKNQVSLSCAVKGFYPSDIAVEWESNGQPENNYKTTPPVLDSDGSFFLVSKLTVDKSRWQQGNVFSCSVMHEALHNHYTQKSLSLSPGK
light 2: AIRMTQSPSSFSASTGDRVTITCQASESISNELSWYQEKPGKAPKLLIYYASTLASGVPSRFSGSGSGTDFTLTISSLQPEDFATYYCAQGYGSSGVENVFGGGTKVEIKRTVAAPSVFIFPPSDEQLKSGTASVKCLLNNFYPREAKVQWKVDNALQSGNSQESVTEQDSKDSTYSLSSTLTLSKADYEKHKVYACEVTHQGLSSPVTKSFNRGEC
notes: hIgG1 N297G knob-in-hole bispecific with Q39E/Q38K, Q39K/Q38E, S183K/V133E and S183E/V133K pairing mutations; also called anti-KLK5/KLK7 bispecific antibody without M428L/N434S
On to B10, for which the Kd in the experiment with human KLK7 [8] is less than 1 pM; with cynomolgus monkey KLK7, 2.3 pM; with cynomolgus monkey KLK5 [9], 0.019 nM; with human KLK5 [10], 0.8 pM. Besides, the koff in the experiment with human KLK7 [8] was less than 1e-06 s⁻¹; with cynomolgus monkey KLK7 it was 9e-05 s⁻¹; with cynomolgus monkey KLK5 [9], 0.00019 s⁻¹; with human KLK5 [10], 1.5e-05 s⁻¹. The on-rate constant (kon) with human KLK7 [8] was 5.8e+07 M⁻¹ s⁻¹; with cynomolgus monkey KLK7 it was 4e+07 M⁻¹ s⁻¹; in the experiment with cynomolgus monkey KLK5 [9] it was 1e+07 M⁻¹ s⁻¹; with human KLK5 [10], 2.1e+07 M⁻¹ s⁻¹. Also, the “IC50, KLK5 direct functional assay” value in the experiment with human KLK5 [2] was 0.67 nM; with cynomolgus monkey KLK5 [4], 0.73 nM. Also, the “IC50, KLK7 direct functional assay” value in experiment [3] and in [5] was 0.37 nM each time.

These data come from patent US20240084042A1 (Genentech, published 2024).
